Response data for 1 variant are collected here from article PMC9478642.

First the molecules themselves.
B1: human T-plastin, full length, wild type [human] / F-actin (filaments of α-actin) [not stated] (parent)
chain 1: MDEMATTQISKDELDELKEAFAKVDLNSNGFICDYELHELFKEANMPLPGYKVREIIQKLMLDGDRNKDGKISFDEFVYIFQEVKSSDIAKTFRKAINRKEGICALGGTSELSSEGTQHSYSEEEKYAFVNWINKALENDPDCRHVIPMNPNTDDLFKAVGDGIVLCKMINLSVPDTIDERAINKKKLTPFIIQENLNLALNSASAIGCHVVNIGAEDLRAGKPHLVLGLLWQIIKIGLFADIELSRNEALAALLRDGETLEELMKLSPEELLLRWANFHLENSGWQKINNFSADIKDSKAYFHLLNQIAPKGQKEGEPRIDINMSGFNETDDLKRAESMLQQADKLGCRQFVTPADVVSGNPKLNLAFVANLFNKYPALTKPENQDIDWTLLEGETREERTFRNWMNSLGVNPHVNHLYADLQDALVILQLYERIKVPVDWSKVNKPPYPKLGANMKKLENCNYAVELGKHPAKFSLVGIGGQDLNDGNQTLTLALVWQLMRRYTLNVLEDLGDGQKANDDIIVNWVNRTLSEAGKSTSIQSFKDKTISSSLAVVDLIDAIQPGCINYDLVKSGNLTEDDKHNNAKYAVSMARRIGARVYALPEDLVEVKPKMVMTVFACLMGRGMKRV
chain 2: not shown

Variants of B1 are the subject of the first assay. Put plainly: sequential low-speed/high-speed F-actin cosedimentation assay. The following applies: with F-actin (filaments of α-actin); 5 μM actin, 2 μM plastin; read off a plot; scale: proportion of T-plastin in low-speed pellet.
For the variant chain 1 F191A, the response turned out to be 0.04.

Still in this assay, the particulars now being: with F-actin (filaments of α-actin); 5 μM actin, 2 μM plastin; read off a plot; scale: proportion of T-plastin in low-speed plus high-speed pellet.
As to chain 1 F191A, the response stood at 0.42.
